This is an account of results in patent US20140178332A1 (published 2014).

The chains are these.
B1: CDR grafted anti IL-12p40 antibody 8E1.1 (antibody, human IgG1, kappa, L234A L235A, V domains shown)
VH: EVQLVESGGGLVQPGGSLRLSCAASGFTFSDYGMVWVRQAPGKGLEWVGSISSGSSNIYYADTVKGRFTISRDDSKNSLYLQMNSLKTEDTAVYYCARNPYWGQGTTVTVSS
VL: DIQMTQSPSSLSASVGDRVTITCKASQNVGTNVAWYQQKPEKAPKSLIYSASHRYSGVPSRFSGSGSGTDFTLTISSLQPEDFATYYCQQYNSYPLTFGGGTKVEIKR
notes: Full-length CDR-grafted antibody, COS cells
B2: CDR grafted anti IL-12p40 antibody 1A6.2 (antibody, human IgG1, kappa, L234A L235A, V domains shown)
VH: EVTLKESGPVLVKPTETLTLTCTVSGFSLSTSGMGVSWIRQPPGKALEWLAHIWWDGDNYYNPSLKSRLTISKDTSKSQVVLTMTNMDPVDTATYYCARRTRVNYAMDYWGQGTTVTVSS
VL: EIVMTQSPATLSVSPGERATLSCKASQSVSNDVAWYQQKPGQAPRLLIYYASNRYTGIPARFSGSGSGTEFTLTISSLQSEDFAVYYCQQDYNSPWTFGGGTKVEIKR
notes: as for B1
B3: CDR grafted anti IL-12p40 antibody 3G7.2 (antibody, human IgG1, kappa, L234A L235A, V domains shown)
VH: EVQLVQSGAEVKKPGASVKVSCKASGYTFTDYWIEWVRQAPGQGLEWMGGFSHGSGSTNYNEKFKGRVTMTTDTSTSTAYMELRSLRSDDTAVYYCARRRFRGMDYWGQGTTVTVSS
VL: B2 VL with N93S, T97S
notes: as for B1
B4: CDR grafted anti IL-12p40 antibody 1A6.5 (antibody, human IgG1, kappa, L234A L235A, V domains shown)
VH: B2 VH with K5R, V10A, E16Q, V24F, S78N
VL: B2 VL
notes: as for B1
B5: CDR grafted anti IL-12p40 antibody 1D4.1 (antibody, human IgG1, kappa, L234A L235A, V domains shown)
VH: EVTLRESGPALVKPTQTLTLTCTFSGFSLSKSVMGVSWIRQPPGKALEWLAHIYWDDDKYYNPSLKSRLTISKDTSKNQVVLTMTNMDPVDTATYYCARRGIRSAMDYWGQGTTVTVSS
VL: DIVMTQSPDSLAVSLGERATINCKASQSVSNDVAWYQQKPGQPPKLLIYYASNRYTGVPDRFSGSGSGTDFTLTISSLQAEDVAVYYCQQDYNSPWTFGGGTKVEIKR
notes: as for B1
B6: CDR grafted anti IL-12p40 antibody 3G7.1 (antibody, human IgG1, kappa, L234A L235A, V domains shown)
VH: B3 VH with A16S, Y27G, T30S, M70I, T72A, T74K, R84S, D89E
VL: B5 VL with N93S, T97S
notes: as for B1
B7: CDR grafted anti IL-12p40 antibody 1A6.1 (antibody, human IgG1, kappa, L234A L235A, V domains shown)
VH: B2 VH with K5R, V10A, E16Q, V24F, S78N
VL: B5 VL
notes: as for B1
B8: CDR grafted anti IL-12p40 antibody 1D4.2 (antibody, human IgG1, kappa, L234A L235A, V domains shown)
VH: B5 VH with R5K, A10V, Q16E, F24V, N78S
VL: B2 VL
notes: as for B1
B9: CDR grafted anti IL-12p40 antibody 1A6.6 (antibody, human IgG1, kappa, L234A L235A, V domains shown)
VH: B2 VH
VL: B5 VL
notes: as for B1
B10: CDR grafted anti IL-12p40 antibody 1D4.3 (antibody, human IgG1, kappa, L234A L235A, V domains shown)
VH: B5 VH
VL: B2 VL
notes: as for B1

By Kd is commonly meant the constant that tells how readily two partners part at equilibrium. The term koff denotes a measure of how fast the partners let go of each other. For orientation: kon means the second-order rate constant of association.

Where a chain is given by its changes, count along the chain named.

The target in one experiment is T1, recombinant purified human IL-12 p70 (human, UniProt P29459 23-219).
T1 sequence 1: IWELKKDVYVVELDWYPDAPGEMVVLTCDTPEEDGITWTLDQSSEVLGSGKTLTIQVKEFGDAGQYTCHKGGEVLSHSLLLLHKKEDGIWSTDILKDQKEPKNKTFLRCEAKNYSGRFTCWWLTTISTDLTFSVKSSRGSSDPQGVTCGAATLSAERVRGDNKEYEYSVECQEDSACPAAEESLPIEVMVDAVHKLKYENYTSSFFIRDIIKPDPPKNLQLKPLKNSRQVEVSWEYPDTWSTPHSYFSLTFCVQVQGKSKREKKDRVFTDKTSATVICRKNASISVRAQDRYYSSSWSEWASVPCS
T1 sequence 2: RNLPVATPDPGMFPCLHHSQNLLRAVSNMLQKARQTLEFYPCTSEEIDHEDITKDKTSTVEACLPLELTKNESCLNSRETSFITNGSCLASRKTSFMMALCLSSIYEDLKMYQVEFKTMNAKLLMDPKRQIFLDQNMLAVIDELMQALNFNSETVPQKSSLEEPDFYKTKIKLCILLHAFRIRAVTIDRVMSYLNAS
Put plainly: cell-based or functional assay.
As to B1, the “Av. IC50 (nM) Hu IL-12, PHA blast assay” value is 2.8 nM.

Regarding B2, the “Av. IC50 (nM) Hu IL-12, PHA blast assay” value is 1.1 nM.

As for B3, the “Av. IC50 (nM) Hu IL-12, PHA blast assay” value came to 0.24 nM.

In the case of B4, the “Av. IC50 (nM) Hu IL-12, PHA blast assay” value turned out to be 1.9 nM.

B5: the “Av. IC50 (nM) Hu IL-12, PHA blast assay” value was 0.47 nM.

For the molecule B6, the “Av. IC50 (nM) Hu IL-12, PHA blast assay” value was 0.56 nM.

Turning to B7, the “Av. IC50 (nM) Hu IL-12, PHA blast assay” value is 0.48 nM.

Turning to B8, the “Av. IC50 (nM) Hu IL-12, PHA blast assay” value was found to be 3 nM.

As to B9, the “Av. IC50 (nM) Hu IL-12, PHA blast assay” value was determined as 0.59 nM.

On to B10, for which the “Av. IC50 (nM) Hu IL-12, PHA blast assay” value is 0.83 nM.

A further experiment addresses T2, recombinant purified cyno IL-12 p70 (cynomolgus monkey).
T2 chain 1: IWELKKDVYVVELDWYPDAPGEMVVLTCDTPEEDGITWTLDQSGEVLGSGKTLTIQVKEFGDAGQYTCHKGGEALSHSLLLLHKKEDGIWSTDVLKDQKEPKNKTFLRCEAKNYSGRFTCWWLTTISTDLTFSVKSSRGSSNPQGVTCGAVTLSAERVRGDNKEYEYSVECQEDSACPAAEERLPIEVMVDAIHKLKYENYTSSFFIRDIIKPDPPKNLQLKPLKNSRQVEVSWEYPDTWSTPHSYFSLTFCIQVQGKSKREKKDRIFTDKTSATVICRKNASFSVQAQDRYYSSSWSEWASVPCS
T2 chain 2: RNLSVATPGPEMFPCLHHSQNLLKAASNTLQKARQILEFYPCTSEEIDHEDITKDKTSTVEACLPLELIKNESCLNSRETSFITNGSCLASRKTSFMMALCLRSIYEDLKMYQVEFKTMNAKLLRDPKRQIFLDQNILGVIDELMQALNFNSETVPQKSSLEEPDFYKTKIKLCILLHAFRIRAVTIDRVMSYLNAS
The experiment is described as follows: cell-based or functional assay.
B1: the “Av. IC50 (nM) Cyno IL-12, PHA blast assay” value was 4.6 nM.

For B2, the “Av. IC50 (nM) Cyno IL-12, PHA blast assay” value worked out at 0.84 nM.

For the molecule B3, the “Av. IC50 (nM) Cyno IL-12, PHA blast assay” value came out at 0.7 nM.

Regarding B4, the “Av. IC50 (nM) Cyno IL-12, PHA blast assay” value turned out to be 1.1 nM.

As for B5, the “Av. IC50 (nM) Cyno IL-12, PHA blast assay” value was found to be 1.5 nM.

Take B6: the “Av. IC50 (nM) Cyno IL-12, PHA blast assay” value is 1.2 nM.

For B7, the “Av. IC50 (nM) Cyno IL-12, PHA blast assay” value was determined as 0.57 nM.

Turning to B8, the “Av. IC50 (nM) Cyno IL-12, PHA blast assay” value was 3 nM.

B9: the “Av. IC50 (nM) Cyno IL-12, PHA blast assay” value worked out at 0.14 nM.

In the case of B10, the “Av. IC50 (nM) Cyno IL-12, PHA blast assay” value was 1.6 nM.

The target in the next experiment is T1, recombinant purified human IL-12 p70. Put plainly: SPR (Biacore) as in Example 1.1.B, human IL-12p70. As to the method:
Approximately 5000 RU of goat anti-mouse IgG, (Fcγ), fragment specific polyclonal antibody (Pierce Biotechnology Inc, Rockford, Ill.) diluted in 10 mM sodium acetate (pH 4.5) was directly immobilized across a CM5 research grade biosensor chip using a standard amine coupling kit according to manufacturer's instructions and procedures at 25 μg/ml. Unreacted moieties on the biosensor surface were blocked with ethanolamine. Modified carboxymethyl dextran surface in flowcell 2 and 4 was used as a reaction surface. Unmodified carboxymethyl dextran without goat anti-mouse IgG in flow cell 1 and 3 was used as the reference surface. For kinetic analysis, rate equations derived from the 1:1 Langmuir binding model were fitted simultaneously to association and dissociation phases of all eight injections (using global fit analysis) with the use of Biaevaluation 4.0.1 software. Purified antibodies were diluted in HEPES-buffered saline for capture across goat anti-mouse IgG specific reaction surfaces. Mouse antibodies to be captured as a ligand (25 μg/ml) were injected over reaction matrices at a flow rate of 5 μl/min. The association and dissociation rate constants, kₒₙ (unit M⁻¹ s⁻¹) and koff (unit s⁻¹) were determined under a continuous flow rate of 25 μl/min. Rate constants were derived by making kinetic binding measurements at ten different antigen concentrations ranging from 10-200 nM. The equilibrium dissociation constant (unit M) of the reaction between mouse antibodies and recombinant purified human IL-12 p70 or recombinant purified human IL-12 p40 was then calculated from the kinetic rate constants by the following formula: KD=koff/kₒₙ. Binding is recorded as a function of time and kinetic rate constants are calculated. In this assay, on-rates as fast as 10⁶M⁻¹ s⁻¹ and off-rates as slow as 10⁻⁶ can be measured. […]
(In general: In SPR one partner is held on a chip, and binding of the other changes the refractive index at the surface.)
As to B1, the equilibrium dissociation constant (Kd) was found to be 1.7 nM, the koff was 0.00087 s⁻¹ and the kon amounted to 520000 M⁻¹ s⁻¹.

For B2, the dissociation constant Kd was found to be 0.54 nM, the off-rate (koff) turned out to be 5.4e-05 s⁻¹ and the kon worked out at 100000 M⁻¹ s⁻¹.

On to B3, for which the Kd was 0.23 nM, the koff turned out to be 0.00014 s⁻¹ and the kon amounted to 610000 M⁻¹ s⁻¹.

Take B4: the Kd is 0.43 nM, the koff is 5.6e-05 s⁻¹ and the association rate constant (kon) was 130000 M⁻¹ s⁻¹.

In the case of B5, the Kd amounted to 0.12 nM, the koff was determined as 2.9e-05 s⁻¹ and the association rate constant (kon) was determined as 260000 M⁻¹ s⁻¹.

On to B6, for which the Kd was determined as 0.22 nM, the off-rate constant (koff) is 9.1e-05 s⁻¹ and the on-rate (kon) was determined as 420000 M⁻¹ s⁻¹.

In the case of B7, the Kd is 0.27 nM, the koff is 2.9e-05 s⁻¹ and the on-rate constant (kon) worked out at 110000 M⁻¹ s⁻¹.

As to B8, the dissociation constant Kd worked out at 1.7 nM, the koff is 0.00026 s⁻¹ and the kon came out at 160000 M⁻¹ s⁻¹.

On to B10, for which the equilibrium dissociation constant (Kd) came out at 0.25 nM, the off-rate constant (koff) came out at 5.3e-05 s⁻¹ and the kon turned out to be 210000 M⁻¹ s⁻¹.
